Tested on: Nc1ncnc2c1ncn2[C@@H]1O[C@H](COP(=O)(O)OP(=O)(O)OP(=O)(O)O)[C@@H](O)[C@H]1O
Experiment: purified protein
Details: co-substrate acetate, MgCl2 6.6 mM, HEPES 84 mM, 40 °C

| Substance | Km | kcat | kcat/Km |
| --- | --- | --- | --- |
| EutP (Salmonella enterica subsp. enterica serovar Typhimurium str. LT2) | 500 ± 200 µM | 657 s⁻¹ | 1.31e+06 ± 377000 M⁻¹ s⁻¹ |
| EutQ (Salmonella enterica subsp. enterica serovar Typhimurium str. LT2) | 500 ± 100 µM | 434 s⁻¹ | 868000 ± 145000 M⁻¹ s⁻¹ |

Reference: PMC4857615
